This assay concerns the target CD200 expressed on FBL leukemia cells transduced with CD200 (CD200+ FBL) (UniProt O54901). In words: cell-based or functional assay.

Chain of CD200 expressed on FBL leukemia cells transduced with CD200 (CD200+ FBL) (O54901 31-278 limits assumed): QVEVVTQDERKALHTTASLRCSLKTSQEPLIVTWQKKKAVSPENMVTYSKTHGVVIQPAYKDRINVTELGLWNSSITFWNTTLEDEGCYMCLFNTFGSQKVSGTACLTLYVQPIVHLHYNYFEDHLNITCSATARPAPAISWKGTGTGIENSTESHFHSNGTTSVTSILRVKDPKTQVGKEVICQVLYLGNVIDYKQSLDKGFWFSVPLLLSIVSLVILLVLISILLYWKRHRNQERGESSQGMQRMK

“CD200R-9aas-CD28Cys (murine construct V) (from UniProt Q9ES57 26-229; P31041 142-218)” had an accumulation of transduced T cells over multiple cycles of stimulation with irradiated CD200+ FBL of 3 fold; a fold enrichment, stimulation 3/stimulation 1 of 3 fold; a lysis of CD200+ FBL (CFSE-based cytotoxicity assay) of 40%; a percentage of cytokine non-producing cells (flow cytometry) of 27%. The percentage of polyfunctional cells producing all 3 cytokines (IFNγ, IL-2, TNFα) is 22%.
